Assay results taken from patent publication US10941182 (Amgen, dated 2021).
Starred links: 1 amine or outer side, 2 acyl side, 3 side chain; linkers in the order of their positions; H or OH if unused. Non-standard residues stand in square brackets, D forms with d. *: point of attachment. Oic = O=C(O)[C@@H]1C[C@@H]2CCCC[C@@H]2N1; Phe(4-Cl) = N[C@@H](Cc1ccc(Cl)cc1)C(=O)O; γGlu = O=C(O)[C@H](CCC(=O)[*:2])N[*:1]; 2Nal = N[C@@H](Cc1ccc2ccccc2c1)C(=O)O; NMehArg = CN[C@@H](CCCCNC(=N)N)C(=O)O; NMeR = CN[C@@H](CCCNC(=N)N)C(=O)O; Tridecanoyl = CCCCCCCCCCCCC(=O)*; Cha = N[C@@H](CC1CCCCC1)C(=O)O; Nle = CCCC[C@H](N)C(=O)O; AEEA = NCCOCCOCC(=O)O; Aib = CC(C)(N)C(=O)O; βAla = NCCC(=O)O

T1: rat APJ receptor (rat, UniProt Q9JHG3 1-377)
T1 sequence (looked up): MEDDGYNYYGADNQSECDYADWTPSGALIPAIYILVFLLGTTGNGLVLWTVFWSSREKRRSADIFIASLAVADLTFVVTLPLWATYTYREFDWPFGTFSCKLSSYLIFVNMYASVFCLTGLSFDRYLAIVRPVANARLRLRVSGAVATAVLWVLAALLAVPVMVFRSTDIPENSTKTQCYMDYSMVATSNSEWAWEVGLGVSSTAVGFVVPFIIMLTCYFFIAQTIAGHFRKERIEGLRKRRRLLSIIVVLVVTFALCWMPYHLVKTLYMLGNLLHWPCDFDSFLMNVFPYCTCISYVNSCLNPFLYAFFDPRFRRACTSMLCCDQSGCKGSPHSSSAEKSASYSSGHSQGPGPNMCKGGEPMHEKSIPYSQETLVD

T2: human APJ receptor (human, UniProt P35414 1-380)
T2 sequence (looked up): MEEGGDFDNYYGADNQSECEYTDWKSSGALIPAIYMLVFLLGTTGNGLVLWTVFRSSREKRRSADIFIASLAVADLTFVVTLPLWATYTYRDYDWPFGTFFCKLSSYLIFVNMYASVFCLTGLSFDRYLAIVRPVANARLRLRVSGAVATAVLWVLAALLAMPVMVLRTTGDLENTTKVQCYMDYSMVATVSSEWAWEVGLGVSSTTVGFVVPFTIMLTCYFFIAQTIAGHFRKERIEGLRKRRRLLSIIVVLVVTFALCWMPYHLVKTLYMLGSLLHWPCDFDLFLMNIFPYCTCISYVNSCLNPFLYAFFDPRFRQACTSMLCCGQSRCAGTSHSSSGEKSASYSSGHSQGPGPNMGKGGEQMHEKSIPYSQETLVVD


How the values were obtained:
rat APJ receptor = molecular target: T1, rat APJ receptor; assay: cell-based or functional assay
human APJ receptor = molecular target: T2, human APJ receptor; assay: cell-based or functional assay

Binder | EC50 Rat APJ Receptor (GTPγS assay) (rat APJ receptor) [nM] | EC50 Human APJ Receptor (GTPγS assay) (human APJ receptor) [nM]
Tridecanoyl-[γGlu][AEEA][AEEA]QRP[NMeR]LSHKGP[Nle][βAla][Phe(4-Cl)]-OH (SMILES CCCCCCCCCCCCC(=O)N[C@@H](CCC(=O)NCCOCCOCC(=O)NCCOCCOCC(=O)N[C@@H](CCC(N)=O)C(=O)N[C@@H](CCCNC(=N)N)C(=O)N1CCC[C@H]1C(=O)N(C)[C@@H](CCCNC(=N)N)C(=O)N[C@@H](CC(C)C)C(=O)N[C@@H](CO)C(=O)N[C@@H](Cc1c[nH]cn1)C(=O)N[C@@H](CCCCN)C(=O)NCC(=O)N1CCC[C@H]1C(=O)N[C@@H](CCCC)C(=O)NCCC(=O)N[C@@H](Cc1ccc(Cl)cc1)C(=O)O)C(=O)O) [Apelin polypeptide SEQ ID NO: 425] | 0.157 | 0.0937
Tridecanoyl-[γGlu][AEEA][AEEA]Q[dR]P[dR][Cha]SHKG[Oic][Nle]P[Phe(4-Cl)]-OH (SMILES CCCCCCCCCCCCC(=O)N[C@@H](CCC(=O)NCCOCCOCC(=O)NCCOCCOCC(=O)N[C@@H](CCC(N)=O)C(=O)N[C@H](CCCNC(=N)N)C(=O)N1CCC[C@H]1C(=O)N[C@H](CCCNC(=N)N)C(=O)N[C@@H](CC1CCCCC1)C(=O)N[C@@H](CO)C(=O)N[C@@H](Cc1c[nH]cn1)C(=O)N[C@@H](CCCCN)C(=O)NCC(=O)N1[C@H](C(=O)N[C@@H](CCCC)C(=O)N2CCC[C@H]2C(=O)N[C@@H](Cc2ccc(Cl)cc2)C(=O)O)C[C@@H]2CCCC[C@@H]21)C(=O)O) [Apelin polypeptide SEQ ID NO: 430] | 2.83 | 1.22
Tridecanoyl-[γGlu][AEEA][AEEA]QRP[NMeR]LSHKGP[Nle]P[2Nal]-OH (SMILES CCCCCCCCCCCCC(=O)N[C@@H](CCC(=O)NCCOCCOCC(=O)NCCOCCOCC(=O)N[C@@H](CCC(N)=O)C(=O)N[C@@H](CCCNC(=N)N)C(=O)N1CCC[C@H]1C(=O)N(C)[C@@H](CCCNC(=N)N)C(=O)N[C@@H](CC(C)C)C(=O)N[C@@H](CO)C(=O)N[C@@H](Cc1c[nH]cn1)C(=O)N[C@@H](CCCCN)C(=O)NCC(=O)N1CCC[C@H]1C(=O)N[C@@H](CCCC)C(=O)N1CCC[C@H]1C(=O)N[C@@H](Cc1ccc2ccccc2c1)C(=O)O)C(=O)O) [Apelin polypeptide SEQ ID NO: 470] | 0.149 | 0.0379
Tridecanoyl-[γGlu][AEEA][AEEA]QRPPLSHKGP[Nle]P[Phe(4-Cl)]-OH (SMILES CCCCCCCCCCCCC(=O)N[C@@H](CCC(=O)NCCOCCOCC(=O)NCCOCCOCC(=O)N[C@@H](CCC(N)=O)C(=O)N[C@@H](CCCNC(=N)N)C(=O)N1CCC[C@H]1C(=O)N1CCC[C@H]1C(=O)N[C@@H](CC(C)C)C(=O)N[C@@H](CO)C(=O)N[C@@H](Cc1c[nH]cn1)C(=O)N[C@@H](CCCCN)C(=O)NCC(=O)N1CCC[C@H]1C(=O)N[C@@H](CCCC)C(=O)N1CCC[C@H]1C(=O)N[C@@H](Cc1ccc(Cl)cc1)C(=O)O)C(=O)O) [Apelin polypeptide SEQ ID NO: 427] | 0.313 | 0.17
Tridecanoyl-[γGlu][AEEA][AEEA]Q[dR]P[NMehArg][Cha]SHKGP[Nle]P[Phe(4-Cl)]-OH (SMILES CCCCCCCCCCCCC(=O)N[C@@H](CCC(=O)NCCOCCOCC(=O)NCCOCCOCC(=O)N[C@@H](CCC(N)=O)C(=O)N[C@H](CCCNC(=N)N)C(=O)N1CCC[C@H]1C(=O)N(C)[C@@H](CCCCNC(=N)N)C(=O)N[C@@H](CC1CCCCC1)C(=O)N[C@@H](CO)C(=O)N[C@@H](Cc1c[nH]cn1)C(=O)N[C@@H](CCCCN)C(=O)NCC(=O)N1CCC[C@H]1C(=O)N[C@@H](CCCC)C(=O)N1CCC[C@H]1C(=O)N[C@@H](Cc1ccc(Cl)cc1)C(=O)O)C(=O)O) [Apelin polypeptide SEQ ID NO: 435] | 1.15 | 0.461
XXXQRPRLSHKGPXXF ({TDA}[AC4Abu][Aeea][Aeea]QRP[NMeArg]LSHKGP[Nle][Pip][4-Cl-F]{COOH}) [Apelin polypeptide SEQ ID NO: 429] | 0.0935 | 0.0664
Tridecanoyl-[γGlu][AEEA][AEEA]QRPELSHKGP[Nle]P[Phe(4-Cl)]-OH (SMILES CCCCCCCCCCCCC(=O)N[C@@H](CCC(=O)NCCOCCOCC(=O)NCCOCCOCC(=O)N[C@@H](CCC(N)=O)C(=O)N[C@@H](CCCNC(=N)N)C(=O)N1CCC[C@H]1C(=O)N[C@@H](CCC(=O)O)C(=O)N[C@@H](CC(C)C)C(=O)N[C@@H](CO)C(=O)N[C@@H](Cc1c[nH]cn1)C(=O)N[C@@H](CCCCN)C(=O)NCC(=O)N1CCC[C@H]1C(=O)N[C@@H](CCCC)C(=O)N1CCC[C@H]1C(=O)N[C@@H](Cc1ccc(Cl)cc1)C(=O)O)C(=O)O) [Apelin polypeptide SEQ ID NO: 477] | 0.691 | 0.423
Tridecanoyl-[γGlu][AEEA][AEEA][dQ]RPE[Cha]SHKG[Oic][Nle][Aib][Phe(4-Cl)]-OH (SMILES CCCCCCCCCCCCC(=O)N[C@@H](CCC(=O)NCCOCCOCC(=O)NCCOCCOCC(=O)N[C@H](CCC(N)=O)C(=O)N[C@@H](CCCNC(=N)N)C(=O)N1CCC[C@H]1C(=O)N[C@@H](CCC(=O)O)C(=O)N[C@@H](CC1CCCCC1)C(=O)N[C@@H](CO)C(=O)N[C@@H](Cc1c[nH]cn1)C(=O)N[C@@H](CCCCN)C(=O)NCC(=O)N1[C@H](C(=O)N[C@@H](CCCC)C(=O)NC(C)(C)C(=O)N[C@@H](Cc2ccc(Cl)cc2)C(=O)O)C[C@@H]2CCCC[C@@H]21)C(=O)O) [Apelin polypeptide SEQ ID NO: 526] | 7.2 | 2.02
XXXQRPRLSHKGPXPF ({TDA}[AC4Abu][Aeea][Aeea]QrP[NMehArg][BLeu]SHKGP[Nle]P[4-Cl-F]{COOH}) [Apelin polypeptide SEQ ID NO: 384] | 4.35 | 0.957
Tridecanoyl-[γGlu][AEEA][AEEA][dQ]RP[dE][Cha]SHKG[Oic][Nle][Aib][Phe(4-Cl)]-OH (SMILES CCCCCCCCCCCCC(=O)N[C@@H](CCC(=O)NCCOCCOCC(=O)NCCOCCOCC(=O)N[C@H](CCC(N)=O)C(=O)N[C@@H](CCCNC(=N)N)C(=O)N1CCC[C@H]1C(=O)N[C@H](CCC(=O)O)C(=O)N[C@@H](CC1CCCCC1)C(=O)N[C@@H](CO)C(=O)N[C@@H](Cc1c[nH]cn1)C(=O)N[C@@H](CCCCN)C(=O)NCC(=O)N1[C@H](C(=O)N[C@@H](CCCC)C(=O)NC(C)(C)C(=O)N[C@@H](Cc2ccc(Cl)cc2)C(=O)O)C[C@@H]2CCCC[C@@H]21)C(=O)O) [Apelin polypeptide SEQ ID NO: 527] | 227 | 108
Tridecanoyl-[γGlu][AEEA][AEEA]QRPQLSHKGP[Nle]P[Phe(4-Cl)]-OH (SMILES CCCCCCCCCCCCC(=O)N[C@@H](CCC(=O)NCCOCCOCC(=O)NCCOCCOCC(=O)N[C@@H](CCC(N)=O)C(=O)N[C@@H](CCCNC(=N)N)C(=O)N1CCC[C@H]1C(=O)N[C@@H](CCC(N)=O)C(=O)N[C@@H](CC(C)C)C(=O)N[C@@H](CO)C(=O)N[C@@H](Cc1c[nH]cn1)C(=O)N[C@@H](CCCCN)C(=O)NCC(=O)N1CCC[C@H]1C(=O)N[C@@H](CCCC)C(=O)N1CCC[C@H]1C(=O)N[C@@H](Cc1ccc(Cl)cc1)C(=O)O)C(=O)O) [Apelin polypeptide SEQ ID NO: 465] | 0.175 | 0.0692
